Earlier results, collected in article PMC11858487.

Molecular target: EGFR (Homo sapiens) (UniProt P00533)

Substance: [99mTc]Tc-SYPIPDT-ECG-TAMRA
- Kd: 76.5 nM
